# Assay results published in article PMC7307101.
# What was measured:
# [1] = target: trimeric influenza virus polymerase of A/England/195/2009(pH1N1) (PB2, PB1-Gluc1, PA); assay: split-luciferase assay; settings: parent: est. 1.5; read off a plot
# [2] = target: trimeric influenza virus polymerase of A/turkey/England/50-92/1991(H5N1) (PB2, PB1-Gluc1, PA); assay: split-luciferase assay; settings: parent: est. 30; read off a plot
substance,measurement,setting,value
human ANP32A-Gluc2 (from UniProt P39687) I106V; P156S,response,[1],3.5 NLR
same,response,[2],55 NLR
